Source: the DeepSol protein solubility set

experiment: soluble on expression in E. coli; label from the status in PepcDB or PDB records

Row | Sequence | soluble on expression in E. coli
1 | MSGLIPAHGLSFRVDASTLTGQSSLLRASLGLDDVHLQVSAITEVKSVFVADAFDRGLVTVTADKEIAIWFPPNSATEQELFVRTLSAAMNGDGPIPQPVPHLDFVAVDVETTNSDWGSICQIGAAKVRDGHVVETKEWLCTPPGDLNSFDEANIAIHGITADMVATAPSFAECYDQFADFAGDLPLAAHNAQFDMTAFLRATQAADIRLRTTNFGCSLAAARAAHLPIANHKLPTVSQHLHVELRNHHNACADAEACAGILIALTQRLNTEITDFTSAFNMLGFHTGQLSDARVYPVLKVRGASSTPASPDSAAPAIQTPPAEKPRKATKAARAPWSKVATPETIPDPNPDADPQGRLFGQSVTLSGDFAPYDKGELWAGIANQGGIIGKNVTKKTTILVCGPWDKPTSKQKRAEELRAKGQEIDLWTQEDLFAQLGLNPEDEQPPF | not soluble
2 | MAQFTEDEKIMRRLEQRFNKGVVKYRLIEDGDKILIGLSGGKDSLALLELLARRSRILKPKFTVIAVHVGMTNIPYQSDLEYLKGYSEDLGVPFVHYETFFDPSTDTRKSPCFLCSWNRRKALFTVAKEQGCNKIALGHHMDDILETLLMNITFQGAFSTMPPKLVMRKFEMTIIRPMCLVHEADLIEMARIRGFRKQIKDCPYESLSNRSNMKEVLYSLEKMNPEARYSLWKCMTNIQEELLPGMNEHDL | not soluble
3 | SFYSGLLTEGGRKETDMREAASLRQQRRMKQAVQFIHKDSADLLPLDGLKKLGSSKDMQPHNILQRRLMETNLSKLRSGPRVPWASKTNKLNQAKSEGLKKSEEDDMILVSCQCAGKDVKALVDTGCLYNLISLACVDRLGLKEHVKSHKHEGEKLSLPRHLKVVGQIEHLVITLGSLRLDCPAAVVDDNEKNLSLGLQTLRSLKCIINLDKHRLIMGKTDKEEIPFVETVSLNEDNTSEA | soluble
4 | MSAPPTAPADPSTGSDRPKRSVPPPRHPTHAVDRAFLDLERRRPEVRWDAGGVAYLSGPPPSLADLRAYVAFRLGELPLLTSRVTGGRRPGWQPSEDFPVDRHVYEVVADGPADWDTALHSALNAPFAPGAYWGVWLIHGHEPDAYALCYRFLHACQDGSAAAMTFRAMLGDGEPSARPLPGGSGVFGVPRRFGAAVALATRFLARTFTVRRHRPDPAFAPAGERRLWRGRVPVDTLRLIGAGRGGSAHDAHLAALAGALSVWAARSGVPLPRVTAVLPVDARRADEEQTWGNRCFALPVDLPVGPAPGRPDGSPDEEAPLRRLDQIMAVTRKLRGDTWRQAVQDLVRYMPDRPTAWYLRRMLSPRVTNVMATSMPLAEKGSLGETRVTGTALLPLLVPGHLCGVGLSFFGDWAEVSFVADRALPLGELLPELWEQAVRELAESVQRGLEHHHHHH | not soluble
5 | RPNVERDAQRRVNIRVTDEIVTALNERRIVMAFEPVVQAVSRAPAFHECLVRMKQDDGELLLAPDIVPVAEKLGLIRLVDHRVLELVVAELAAAPGVELSLNISPDTTMDADWWASIESLLGANPGVAERLIVEITETVAIQDLDDVRGFVNRLKNFGARIAIDDFGAGYTSFRNLRNLGVDIVKIDGAFVQNIARSADDRAFVQTLIDLARRLEIKTVAEWVQDEASAIMLRDWGCDYIQGRLIGLA | not soluble
6 | MYIVVSTGDRAARIASKLPDCIIIDRDPDSAERLKEKGFNVLNGDASNPEILARFDMGEKIILADNDDFNIKVVKTAKLLGLDVYAVAADEDKCWLYEVEGVSKICGSVEALLSTIFRKNRYFEIQVEAEMEGKTL | not soluble
7 | GSHMNNEDFSQWSVDDVITWCISTLEVEETDPLCQRLRENDIVGDLLPELCLQDCQDLCDGDLNKAIKFKILINKMRDSKLEWKD | soluble
8 | GNGRFLTLKPLPDSIIQESLEIQQGVNPFFIGRSEDCNCKIEDNRLSRVHCFIFKKRHAVGKSMYESPAQGLDDIWYCHTGTNVSYLNNNRMIQGTKFLLQDGDEIKIIWDKNNKFVIGFKVEINDTTGLFNEGLGMLQEQRVVLKQTAEEKDLVKKL | soluble
9 | MSDYENDDECWNVLEGFRVTLTSVIDPSRITPYLRQCKVLNPDDEEQVLSDPNLVIRKRKVGVLLDILQRTGHKGYVAFLESLELYYPQLYKKVTGKEPARVFSMIIDASGESGLTQLLMTEVMKLQKKVQDLTALLSSKDDFIKELRVKDSLLRKHQERVQRLKEECEAGSRELKRCKEENYDLAMRLAHQSEEKGAALMRNRDLQLEIDQLKHSLMKAEDDCKVERKHTLKLRHAMEQRPSQELLWELQQEKALLQARVQELEASVQEGKLDRSSPYIQVLEEDWRQALRDHQEQANTIFSLRKDLRQGEARRLRCMEEKEMFELQCLALRKDSKMYKDRIEAILLQMEEVAIERDQAIATREELHAQHARGLQEKDALRKQVRELGEKADELQLQVFQCEAQLLAVEGRLRRQQLETLVLSSDLEDGSPRRSQELSLPQDLEDTQLSDKGCLAGGGSPKQPFAALHQEQVLRNPHDAGLSSGEPPEKERRRLKESFENYRRKRALRKMQKGWRQGEEDRENTTGSDNTDTEGS | soluble
10 | MESENIISAADKARILAEALPYIRRFSGSVAVIKYGGNAMTEPALKEGFARDVVLLKLVGIHPVIVHGGGPQINAMLEKVGKKGEFVQGMRVTDKEAMDIVEMVLGGHVNKEIVSMINTYGGHAVGVSGRDDHFIKAKKLLIDTPEQNGVDIGQVGTVESIDTGLVKGLIERGCIPVVAPVGVGEKGEAFNINADLVAGKLAEELNAEKLLMMTNIAGVMDKTGNLLTKLTPKRIDELIADGTLYGGMLPKIASAVEAAVNGVKATHIIDGRLPNALLLEIFTDAGIGSMILGGGEDA | not soluble
11 | MGSDKIHHHHHHVLVRRLAQAPVPIAGVAVLGTITPEDQQAAEDARLPLLQLPEGVDLREVEREITRLITDYEAQFERRAARLYDLLTQCSLQGGGISGLLDILHERTGQSVAFYASNGVLRAQRGRGQSRLALQALRPNGRGETTLLNQQIWVEPIGNSGLPIGYVAIAGTLLDPWDRTAAQRGALALALELAKEQAVQAAEERLRGDFIAGILAGAPGDLAAVIQRGQELGYTLHLPHTAMLVHIDDASTATLARAATNIQNELKRLGVNAPISRRESNVLCMLPTTSVTRLRELTEQLRERLRLDHPNVVIAIGTPATHLTEWRRSVEEAEQSLSLGRQIFGNDRVLAFGDLGVYRLLIRLRETPELWSFYRETLSSLAEYDKRQHADLIKTLEAYFNHLGNLRATSEALHVHRNTLLYRLERIKEISGMDLDNAEEHFALWLAVRAHRILATLEE | not soluble
12 | MINRNEEQNFNKLSEVINEYNKLQISQQIDYDKFYLYSIITHSTAIEGSTITEIENQLLFDEGISANKPIHEQLMNLDLKAAYEKSFELAKQHTQITPEILCELSVLVMKNTGTVYNTIGGTFSSAKGELRLVNVSAGRGGKSYMAWQKLPQKLEEFCSWLNSERKSIAEKDIEAQYAFSFLAHYKLVHIHPWADGNGRMSRLLMNVIQYEAGLVPAIIKKENRAEYIQSLASSQDKDDPAEFLHFMFSHHIRNLSEQIEEYKNSLEMSGS | not soluble
13 | MAHHHHHHLRCAPSKLFRATPLLRVWAAEEDDASAPRTTFRNVRPGRLLRLWRQMRHRAWMLYAWDEEWVSPMQEGYLHQQRLEQVCFAPLSAYGVVPGSYCDPLLYNTKRTSPFRWHVANVQGDVVGHWYMDADELFRIEDWQPREPDDPLEMFPRPPPMLLRWDESVDEHGNRAFRYRYHYDMMGPTGKWEAYPRCPFSHLYHGGPDQHGRAEGYGFQQGHLLRCDEAEEEVLRRIMEGEDREWEMVKRTEAVQEPWSYPGKIRPRDFEGAVEHAKARYRERVRHGKETDPSEDPEYDLVQASEYVEPRDGRRAEWRHLWASGRKPGESLPFHVAFNDGLCFEGNEGGPPAHPAAHYEATPKGAPYGRYEDADAAAARAAEAAHNAACEQSLSEAMARHRRLFGDTSGAPSGPKAPLPTGCRPMRCAPGPPLPSGRSRSSGARAVGSGPVCGAGARDGESEGEGRGGEAPLGYGARACSWRRREGWV | soluble
14 | MGSDKIHHHHHHMATIEILGFPHAYELTAPTSYPDALVFIHGWLNSRGYWQPVTSRLSVDFQCLSYDLRGFGESQSQLETDFHRGSSSASLSAQSLQEINLSFDSLYTPAAYAQDLAALLEQLNITSAWLVGHSLGGTIALWAAAQIPQRIKGVICINAGGGIYLKEAFEQFRMAGQRFLQVRPRWLSQLPLIDLLFTRASVSRPLDRQWARQRVIDFVVADPEAALGALLDSTTEDEVNRLPKLVSQLKQPVYFLAGTDDKVMEPKYVRHLASFHPLFQYCGDNVIEIPDCGHLAMLEQPDAVASHIKSLVIGHG | not soluble
15 | GPGSMNFTQQLWSVKEWGRVMATRSEYVQIVHDATNDEKWGPTGPQMDAVCNAYPRGGPEILNELRTRLNNRDKSWRPCYKSLLVIDYLARNVDDRYLPEISALVPIIRTISTSFYYTNPKGVDHGVSVRERAKKVADLLSDGLQLREERMVAAQIKAKLSHNASDGGGPNSDAPYSGAGSYGGSRDCDRYRSYVKGSRQAYDSYRSSPPPSAVLSRPRTKEEQERCDMEMALRLQRDEERRSGVSAEQLEEMYAT | soluble
16 | MGSDKIHHHHHHMASAPQANLPMFYNDLMPLNSRDHAAWKAKNADAAPWLIGQHAIPLTAEEFPQAARHYPIIFASGDNPVPLALMGLNEGVNVFVDEDGKVTQPVYIPAYVRRYPFLLAKLNPNSEELSLCFDPSSGLIGDSVDGVELFSDGQPSEATKAALGFCEQFEQAGQRTQAFIDELKKHDLLMEGEVAIQQQGNEQPFIYRGFQMVNQDKLRETRGDVLRGWAQSGLLPLLYAHLFSLELISQIFGAQVQMGKGPIPATPVPAE | not soluble
17 | MNTINRNVYPVSGLSTQSVNPDSDGIQPPDVKSGHNSQLIDFSSPQQVNGLQSSLSLSGSRPQVPATRAASDASENPVELLLNKLVEAIRNILKDLLSLFKGDQQQDQAPPPAQTQREQAPSFSQLSQTPSSASPSSPSPSAAPAPAPTPTPTEKPFVVQNDHPADKPVTVQKNTAPTPPDPVQTQDKTSVTAPPKPVAATPAAHPRATTPVTEKPDTEEKVAKPAPRAAHGQGADMSGMIGFAKEANTTGGNNGEVVTVNTVADLKKYMEDDTARTVKLGANLSADSKVSINFGANKTLLGTDKGNSLHNIYLASGKTASNDIFQNLNFTHDSRYRENGDMQMFISSGQKYWIDHITATGTKDQNPKGLDKLLYVGGKADNVSLTNSRFQNNEYGVILGQPDDSADAKAEYKGYPRMTIANNVFSDLDVRAPGLMRHGQFDVFNNSINDFHLGFTATGDATILSQANYFAKGVDVSNKASNSGVLDDYGDAHFKDIGSNVSFTQKSPVTAWTPSYNRDIKTAEAARAYDLANAGAEAVR | not soluble
18 | MIKGIGLDMIDLERVKQVVEKNPRFIERVLTEKEIKQFEKYEGNRKIEFLAGRFAAKEAYAKANGTGFGKHLSFTDVEILQVEDGRPHVTLPVKSGENVFVSITHTARSAAAQVIIEI | not soluble
19 | MSDGQLVQRRRKAEEPVTEKVDEASGDSAQSSDQEDNDKGTRLTLMEQILLLGLKDREGYTSFWNDCISSGLRGCVLIELVLRGRIQLEGGGMRRKNLLNRKVTVKSSEPTGDVILDEALRHMKETNPPETVTSWIEYLSGETWNPLKLRYQLRNVRERLAKNLVEKGVLTTDKQNFLLFEITTHPLSDGNQKTKLIKEVQEAVLGKWTNDVHRMDKKMLSLIVLAHASDVLENAFAPLSDQDYEVKQMLEILFFSGKLAHFEPKNVAMKRVRSLLDLDYDQQAEKKGNDVMWAVFEAFSK | soluble
20 | GPLGSMASKKVCIVGSGNWGSAIAKIVGGNAAQLAQFDPRVTMWVFEEDIGGKKLTEIINTQHENVKYLPGHKLPPNVVAVPDVVQAAEDADILIFVVPHQFIGKICDQLKGHLKANATGISLIKGVDEGPNGLKLISEVIGERLGIPMSVLMGANIASEVADEKFCETTIGCKDPAQGQLLKELMQTPNFRITVVQEVDTVEICGALKNVVAVGAGFCDGLGFGDNTKAAVIRLGLMEMIAFAKLFCSGPVSSATFLESCGVADLITTCYGGRNRKVAEAFARTGKSIEQLEKELLNGQKLQGPETARELYSILQHKGLVDKFPLFMAVYKVCYEGQPVGEFIHCLQNHPEHM | soluble
